B1: Human Claudin-7 (Cldn7), wild type, His-tagged [human] / itself (parent)
chain: MANSGLQLLGFSMALLGWVGLVACTAIPQWQMSSYAGDNIITAQAMYKGLWMDCVTQSTGMMSCKMYDSVLALSAALQATRALMVVSLVLGFLAMFVATMGMKCTRCGGDDKVKKARIAMGGGIIFIVAGLAALVACSWYGHQIVTDFYNPLIPTNIKYEFGPAIFIGWAGSALVILGGALLSCSCPGNESKAGYRVPRSYPKSNSSKEYV

Variants of: B1
Assay: solubilization/centrifugation assay with SDS-PAGE densitometry
Conditions: p-buffer, n = 9, read off a plot

Variant | screen value (0 mM NaCl) | screen value (300 mM NaCl)
chain 1 R81A Y149A | 0.7 a.u. | 0.82 a.u.
chain 1 Y149A | 0.67 a.u. | 0.96 a.u.
chain 1 V70A | 0.39 a.u. | 0.8 a.u.
chain 1 E160A | 0.38 a.u. | 0.87 a.u.
chain 1 F161A | 0.39 a.u. | 0.85 a.u.
chain 1 V70A R81A F148A Y149A E160A F161A | 0.87 a.u. | 0.86 a.u.
chain 1 R81A | 0.7 a.u. | 0.91 a.u.
chain 1 F148A | 0.38 a.u. | 0.87 a.u.

Reference: article PMC9271825
